Literature values in patent US20050220810A1, “Anti-aging preparation” (Shiseido Company, Ltd., priority 2002, published 2005).

System: vascular endothelial cell HMVEC
Conditions: general statement on positive controls of TSP-1 induction; no test described

B1: TPA: tissue plasminogen activator, a positive control of the TSP-1 inducing substance (protein, UniProt P00750 36-562, looked up)
Tissue-type plasminogen …: SYQVICRDEKTQMIYQQHQSWLRPVLRSNRVEYCWCNSGRAQCHSVPVKSCSEPRCFNGGTCQQALYFSDFVCQCPEGFAGKCCEIDTRATCYEDQGISYRGTWSTAESGAECTNWNSSALAQKPYSGRRPDAIRLGLGNHNYCRNPDRDSKPWCYVFKAGKYSSEFCSTPACSEGNSDCYFGNGSAYRGTHSLTESGASCLPWNSMILIGKVYTAQNPSAQALGLGKHNYCRNPDGDAKPWCHVLKNRRLTWEYCDVPSCSTCGLRQYSQPQFRIKGGLFADIASHPWQAAIFAKHRRSPGERFLCGGILISSCWILSAAHCFQERFPPHHLTVILGRTYRVVPGEEEQKFEVEKYIVHKEFDDDTYDNDIALLQLKSDSSRCAQESSVVRTVCLPPADLQLPDWTECELSGYGKHEALSPFYSERLKEAHVRLYPSSRCTSQHLLNRTVTDNMLCAGDTRSGGPQANLHDACQGDSGGPLVCLNDGRMTLVGIISWGLGCGQKDVPGVYTKVTNYLDWIRDNMRP
induction of cell death in vascular endothelial cells: does not induce cell death
